This is an account of results in US20260193352A1 (published 2026).

The target in this test is T1, cynomolgus monkey PD-1 Fc fusion (cynomolgus monkey, UniProt B0LAJ3 25-170).
T1 construct: also called Cyno PD-1
The test is described as follows: SPR.

T1 sequence (B0LAJ3 entry or part of it limits assumed, form in doubt): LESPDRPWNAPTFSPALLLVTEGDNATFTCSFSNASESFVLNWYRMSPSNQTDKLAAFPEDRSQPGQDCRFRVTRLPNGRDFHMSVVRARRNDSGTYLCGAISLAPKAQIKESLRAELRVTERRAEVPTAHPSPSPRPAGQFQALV

B1: PD-1-binding agent (comprising SEQ ID NOs: 1 and 2) (antibody, V domains shown)
VH: EVQLLESGGGLVQPGGSLRLSCAASGFTFSSYDMSWVRQAPGKGLEWVSTISGGGSYTYYQDSVKGRFTISRDNSKNTLYLQMNSLRAEDTAVYYCASPYYAMDYWGQGTTVTVSS
VL: DIQLTQSPSFLSAYVGDRVTITCKASQDVGTAVAWYQQKPGKAPKLLIYWASTLHTGVPSRFSGSGSGTEFTLTISSLQPEDFATYYCQHYSSYPWTFGQGTKLEIKR
Regarding B1, the “fold difference in KD (cynomolgus monkey PD-1 against human PD-1)” value was below 2 fold.
